One block for each molecule: values may come before it.
Experiments:
HLA-A*0201 [1] = target: T1, HLA-A*0201 (Homo sapiens, UniProt P04439, D140Y/D185E/D98H/E176V/E277Q/G131W/G231S/I119V/I121R/I166T/I218V/L300P/L318F/N151K/N90K/P208A/P217A/Q86G/Q94H/R138H/R169H/T345S); assay: iTopia Epitope Discovery System binding affinity; conditions: hTERT analogs; FIG. 8
Protocol: (§1) Candidate epitopes and analogs are analyzed for the ability to bind to HLA-A*0201in-vitro using iTopia™ Epitope Discovery System (http://www.immunomics.com). This assay provides a method to determine the binding affinity and stability of a test peptide to any of several Class I HLA molecules, using fluorescent-labeled antibody that specifically recognizes HLA only when peptide is bound in the MHC-I groove.
as §1, with “HLA-A*0201 in-vitro” for “HLA-A*0201in-vitro”

HHD mice = assay: Immunogenicity of additional CEA peptides in HHD mice (Example 9, ICS for IFNγ); format: in vivo; conditions: for fold more immunogenic than the natural peptide: HHD mice, ICS IFNγ; for fold more immunogenic than the natural peptide / immunogenicity (immune response against the natural target epitope): FIG. 7; for immunogenicity (immune response against the natural target epitope): 6 HHD mice, 100 μg peptide s.c., two injections, ICS IFNγ three weeks later
HLA-A*0201 [2] = target: T1, HLA-A*0201; assay: In vitro cellular binding assay of CEA peptides on TAP-deficient T2 cells (FACS); conditions: 50 μM peptide, 18 hours at 37° C., FIG. 3
Protocol: To determine the binding ability of EI Suite-selected wild type peptides and analogs, an in vitro cellular binding assay was performed using the TAP-deficient cell line T2. T2 cells are HLA-A*0201 positive, MHC class II negative and TAP deficient, meaning that they lack a functional transporter associated with antigen presentation, so that they accumulate empty unstable class I molecules.
T2 cells were incubated with 50 μM peptide in serum-free RPMI 1640 supplemented with 5 μg/mL human β2m (Fluka) for 18 hours at 37° C. HLA-A*0201 expression was then measured by flow cytometry using the anti-HLA-A2.1 monoclonal antibody (mAb) BB7.2 followed by incubation with fluorescein isothiocyanate (FITC)-conjugated F(ab′)2 goat antimouse Ig (Biosource). The results are expressed as fluorescence index (FI) defined as a ratio (median channel of fluorescence) between the sample and a control without any peptide. An increase over the control of at least […] (FI>2) was arbitrarily chosen as the cutoff point.

HLA-A*0201 [3] = target: T1, HLA-A*0201; assay: HLA-A*0201/peptide complex stability on T2 cells over time (FACS); format: binding; conditions: 50 μM peptide, 0-8 hours, FIG. 4
Protocol: To assess the HLA-A*0201/peptide complex stability, T2 cells (10^6/mL) were incubated overnight with 50 μM of each peptide in serum-free RPMI 1640 supplemented with 100 ng/mL human β2m at 37° C. Cells were then washed 4 times to remove free peptides, incubated for 1 hour with 10 ng/mL Brefeldin A (Sigma-Aldrich) to block cell surface expression of newly synthesized HLA-A*0201 molecules, washed, and incubated at 37° C. for 0, 2, 4, 6, or 8 hours. Subsequently, cells were stained with anti-HLA-A2.1 mAb BB7.2. For each time point, peptide-induced HLA-A*0201 expression was calculated as mean fluorescence value of peptide incubated T2 cells/mean fluorescence value T2 cells in the absence of the peptide. Dissociation complex 50 (DC50) was defined as the time required for the loss of 50% of the HLA-A*0201/peptide complexes stabilized at t=0.
Binding stability of the peptide-MHC complex was also evaluated over time. The CAP-1 peptide was used as positive control.

[4] = target: T2, HLA-A*0201 (iTopia Epitope Discovery System) (human); assay: iTopia Epitope Discovery System binding assay
T2 construct: Commercial in vitro assay; also called Class I HLA molecule
Source text: This assay provides a method to determine the binding affinity and stability of a test peptide to any of several Class I HLA molecules, using fluorescent-labeled antibody that specifically recognizes HLA only when peptide is bound in the MHC-I groove.

HLA-A*0201 on T2 cells [5] = target: T3, HLA-A*0201 on T2 cells (human); assay: T2 cells, 50 uM peptide, surface HLA-A2 by FACS with BB7.2
T3 construct: Empty class I molecule on T2 cells; also called HLA-A2.1; A2.1

HLA-A*0201 on T2 cells [6] = target: T3, HLA-A*0201 on T2 cells; assay: assay not named there (T2 cell binding per paragraph 90)
Protocol: T2 cells were incubated with 50 μM peptide in serum-free RPMI 1640 supplemented with 5 μg/mL human β2m (Fluka) for 18 hours at 37° C. […] The results are expressed as fluorescence index (FI) defined as a ratio (median channel of fluorescence) between the sample and a control without any peptide. An increase over the control of at least 65% (FI>2) was arbitrarily chosen as the cutoff point.

Molecule: 540.V9: hTERT position 540 9-mer V9 analog of ILAKFLHWL, SEQ ID NO 15 (ILAKFLHWV)
- binding affinity to HLA-A*0201 compared to the corresponding wild type peptide (HLA-A*0201 [1]): increase in binding affinity

Molecule: 540.V10: hTERT position 540 10-mer V10 analog of ILAKFLHWLM, SEQ ID NO 17 (ILAKFLHWLV)
- binding affinity to HLA-A*0201 compared to the corresponding wild type peptide (HLA-A*0201 [1]): increase in binding affinity

Molecule: 688.L2: hTERT position 688 10-mer L2 analog of RAWRTFVLRV, SEQ ID NO 20 (RLWRTFVLRV)
- binding affinity to HLA-A*0201 compared to the corresponding wild type peptide (HLA-A*0201 [1]): increase in binding affinity

Molecule: ALVGIMIGV [CEA687L2]
- fold more immunogenic than the natural peptide (HHD mice): about 3.4 fold
- mice responded to the treatment (HHD mice; groups of 6 HHD mice): 100%

Molecule: ATVGIMIGV [CEA687]
- immunogenicity (immune response against the natural target epitope) (HHD mice): significantly immunogenic
- mice responding to the vaccination (HHD mice; groups of 6 HHD mice): 4 out of 6

Molecule: GLMIGVLVGV (Anchor-modified analog) [690L2]
- binding to HLA-A*0201 compared to wild-type counterpart (HLA-A*0201 [2]): marked increase of binding

Molecule: GLNRTTVTTV (Anchor-modified analog) [307V10]
- binding to HLA-A*0201 compared to wild-type counterpart (HLA-A*0201 [2]): marked increase of binding

Molecule: GLSAGATVGV (Anchor-modified analog) [682V10]
- stability of peptide-MHC complex compared to wild-type counterpart (HLA-A*0201 [3]): improved stability
- binding to HLA-A*0201 compared to wild-type counterpart (HLA-A*0201 [2]): marked increase of binding

Molecule: IMIGVLVGV [CEA691]
- immunogenicity (immune response against the natural target epitope) (HHD mice): immunogenic

Molecule: RLTVTTITV (Anchor-modified analog) [CEA310L2]
- immunogenicity (immune response against the natural target epitope) (HHD mice): extremely powerful in eliciting a cross reactive immune response
- fold more immunogenic than the natural peptide (HHD mice): 123 fold

Molecule: VLYGPDDPTV (Anchor-modified analog) [411V10]
- stability of peptide-MHC complex compared to wild-type counterpart (HLA-A*0201 [3]): improved stability
- binding to HLA-A*0201 compared to wild-type counterpart (HLA-A*0201 [2]): marked increase of binding

B5: hTERT position 865, 9-mer, w.t. (RLVDDFLLV) (peptide)
peptide: RLVDDFLLV
notes: Fragment of hTERT (SwissProt O14746, printed); The range is worked out from the printed position and length
- binding affinity (% of positive control) [4]: 30 % of the positive control

B7: hTERT position 540, 9-mer, w.t. (ILAKFLHWL) (peptide)
peptide: ILAKFLHWL
notes: as for B5
- binding affinity (% of positive control) [4]: 30 % of the positive control

The remaining lines, values ahead:

- binding affinity (% of positive control) [4]: 30 % of the positive control
B1: hTERT.934, 9-mer, w.t. (LLDTRTLEV) (peptide)
peptide: LLDTRTLEV
notes: as for B5

- binding result (HLA-A*0201 on T2 cells [5]): binds
Molecule: GLSAGATVGV (Anchor-modified analog of a CEA peptide) [CEA.682V10 (GLSAGATVGV)]

- binding affinity (% of positive control) [4]: 30 % of the positive control
B2: hTERT position 30, 9-mer, w.t. (RLGPQGWRL) (peptide)
peptide: RLGPQGWRL
notes: as for B5

- binding result (HLA-A*0201 on T2 cells [5]): binds
Molecule: GLNRTTVTTV (Anchor-modified analog of a CEA peptide) [CEA.307V10 (GLNRTTVTTV)]

- binding result (HLA-A*0201 on T2 cells [5]): binds
B3: CEA.690L2 (GLMIGVLVGV) (peptide)
peptide: GLMIGVLVGV
notes: Anchor-modified analog of a CEA peptide; leucine at position 2

- binding affinity (% of positive control) [4]: 30 % of the positive control
B4: hTERT position 544, 10-mer, w.t. (FLHWLMSVYV) (peptide)
peptide: FLHWLMSVYV
notes: as for B5

- binding result (HLA-A*0201 on T2 cells [5]): binds
Molecule: VLYGPDTPIV (Anchor-modified analog of a CEA peptide) [CEA.589V10 (VLYGPDTPIV)]

- binding result [4]: binds
Molecule: FLVDDFLLV (type F1) [hTERT 865.F1 analog]

- binding affinity (% of positive control) [4]: 30 % of the positive control
B6: hTERT position 540, 10-mer, w.t. (ILAKFLHWLM) (peptide)
peptide: ILAKFLHWLM
notes: Fragment of hTERT (SwissProt O14746, printed)

- binding result [4]: binds
Molecule: ILAKFLHWV (type V9) [hTERT 540.V9 analog]

- binding affinity (% of positive control) [4]: 30 % of the positive control
B8: hTERT position 688, 10-mer, w.t. (RAWRTFVLRV) (peptide)
peptide: RAWRTFVLRV
notes: as for B5

- binding affinity (% of positive control) [4]: 30 % of the positive control
B9: hTERT position 986, 9-mer, w.t. (FLDLQVNSL) (peptide)
peptide: FLDLQVNSL
notes: as for B5

- binding result (HLA-A*0201 on T2 cells [6]): binds
Molecule: IMIGVLVGV (Wild type CEA 9-mer) [CEA.691 (IMIGVLVGV)]

Source: patent US20110182926A1, “[…]” (priority 2008, published 2011)
